Results: US20250282876A1, “STABLE Fc FRAGMENTS, CONJUGATES, COMPOSITIONS, AND METHODS OF USE” (PURDUE RESEARCH FOUNDATION, priority 2022, published 2025)

How the values were obtained:
[1] = target: His-tagged human FcγR variant CD32b (human) (UniProt P31994); assay: BLI (Octet HTX), His-tagged FcγR on anti-Penta-HIS biosensors, Fc in solution, 1:1 fit
[2] = target: His-tagged human FcγR variant CD32b (human) (UniProt P31994); assay: BLI (Octet HTX), His-tagged FcγR on anti-Penta-HIS biosensors, 1:1 fit; * denotes weak binding/inaccurate KD

| Kd [1] [µM] | Kd [2] [µM] | Substance |
| --- | --- | --- |
| 0.00134 | – | IgG1-CH2-CH3-DLE mutant (Ser239Asp/Ala330Leu/Ile332Glu), monomeric Fc fragment (from UniProt P0DOX5 218-449) |
| – | 3.76 | IgG1-CH2-CH3-WT, wild-type Fc region of human IgG1 (from UniProt P0DOX5 218-449) |
